The values below come from publication PMC2064543.

For this assay, the target named is adenomatous polyposis coli (APC), endogenous in Xenopus egg extracts (Xenopus laevis (endogenous in egg extracts)) (UniProt P70039). The assay is described as follows: co-IP.
Sequence of UniProt P70039 (P70039 whole entry): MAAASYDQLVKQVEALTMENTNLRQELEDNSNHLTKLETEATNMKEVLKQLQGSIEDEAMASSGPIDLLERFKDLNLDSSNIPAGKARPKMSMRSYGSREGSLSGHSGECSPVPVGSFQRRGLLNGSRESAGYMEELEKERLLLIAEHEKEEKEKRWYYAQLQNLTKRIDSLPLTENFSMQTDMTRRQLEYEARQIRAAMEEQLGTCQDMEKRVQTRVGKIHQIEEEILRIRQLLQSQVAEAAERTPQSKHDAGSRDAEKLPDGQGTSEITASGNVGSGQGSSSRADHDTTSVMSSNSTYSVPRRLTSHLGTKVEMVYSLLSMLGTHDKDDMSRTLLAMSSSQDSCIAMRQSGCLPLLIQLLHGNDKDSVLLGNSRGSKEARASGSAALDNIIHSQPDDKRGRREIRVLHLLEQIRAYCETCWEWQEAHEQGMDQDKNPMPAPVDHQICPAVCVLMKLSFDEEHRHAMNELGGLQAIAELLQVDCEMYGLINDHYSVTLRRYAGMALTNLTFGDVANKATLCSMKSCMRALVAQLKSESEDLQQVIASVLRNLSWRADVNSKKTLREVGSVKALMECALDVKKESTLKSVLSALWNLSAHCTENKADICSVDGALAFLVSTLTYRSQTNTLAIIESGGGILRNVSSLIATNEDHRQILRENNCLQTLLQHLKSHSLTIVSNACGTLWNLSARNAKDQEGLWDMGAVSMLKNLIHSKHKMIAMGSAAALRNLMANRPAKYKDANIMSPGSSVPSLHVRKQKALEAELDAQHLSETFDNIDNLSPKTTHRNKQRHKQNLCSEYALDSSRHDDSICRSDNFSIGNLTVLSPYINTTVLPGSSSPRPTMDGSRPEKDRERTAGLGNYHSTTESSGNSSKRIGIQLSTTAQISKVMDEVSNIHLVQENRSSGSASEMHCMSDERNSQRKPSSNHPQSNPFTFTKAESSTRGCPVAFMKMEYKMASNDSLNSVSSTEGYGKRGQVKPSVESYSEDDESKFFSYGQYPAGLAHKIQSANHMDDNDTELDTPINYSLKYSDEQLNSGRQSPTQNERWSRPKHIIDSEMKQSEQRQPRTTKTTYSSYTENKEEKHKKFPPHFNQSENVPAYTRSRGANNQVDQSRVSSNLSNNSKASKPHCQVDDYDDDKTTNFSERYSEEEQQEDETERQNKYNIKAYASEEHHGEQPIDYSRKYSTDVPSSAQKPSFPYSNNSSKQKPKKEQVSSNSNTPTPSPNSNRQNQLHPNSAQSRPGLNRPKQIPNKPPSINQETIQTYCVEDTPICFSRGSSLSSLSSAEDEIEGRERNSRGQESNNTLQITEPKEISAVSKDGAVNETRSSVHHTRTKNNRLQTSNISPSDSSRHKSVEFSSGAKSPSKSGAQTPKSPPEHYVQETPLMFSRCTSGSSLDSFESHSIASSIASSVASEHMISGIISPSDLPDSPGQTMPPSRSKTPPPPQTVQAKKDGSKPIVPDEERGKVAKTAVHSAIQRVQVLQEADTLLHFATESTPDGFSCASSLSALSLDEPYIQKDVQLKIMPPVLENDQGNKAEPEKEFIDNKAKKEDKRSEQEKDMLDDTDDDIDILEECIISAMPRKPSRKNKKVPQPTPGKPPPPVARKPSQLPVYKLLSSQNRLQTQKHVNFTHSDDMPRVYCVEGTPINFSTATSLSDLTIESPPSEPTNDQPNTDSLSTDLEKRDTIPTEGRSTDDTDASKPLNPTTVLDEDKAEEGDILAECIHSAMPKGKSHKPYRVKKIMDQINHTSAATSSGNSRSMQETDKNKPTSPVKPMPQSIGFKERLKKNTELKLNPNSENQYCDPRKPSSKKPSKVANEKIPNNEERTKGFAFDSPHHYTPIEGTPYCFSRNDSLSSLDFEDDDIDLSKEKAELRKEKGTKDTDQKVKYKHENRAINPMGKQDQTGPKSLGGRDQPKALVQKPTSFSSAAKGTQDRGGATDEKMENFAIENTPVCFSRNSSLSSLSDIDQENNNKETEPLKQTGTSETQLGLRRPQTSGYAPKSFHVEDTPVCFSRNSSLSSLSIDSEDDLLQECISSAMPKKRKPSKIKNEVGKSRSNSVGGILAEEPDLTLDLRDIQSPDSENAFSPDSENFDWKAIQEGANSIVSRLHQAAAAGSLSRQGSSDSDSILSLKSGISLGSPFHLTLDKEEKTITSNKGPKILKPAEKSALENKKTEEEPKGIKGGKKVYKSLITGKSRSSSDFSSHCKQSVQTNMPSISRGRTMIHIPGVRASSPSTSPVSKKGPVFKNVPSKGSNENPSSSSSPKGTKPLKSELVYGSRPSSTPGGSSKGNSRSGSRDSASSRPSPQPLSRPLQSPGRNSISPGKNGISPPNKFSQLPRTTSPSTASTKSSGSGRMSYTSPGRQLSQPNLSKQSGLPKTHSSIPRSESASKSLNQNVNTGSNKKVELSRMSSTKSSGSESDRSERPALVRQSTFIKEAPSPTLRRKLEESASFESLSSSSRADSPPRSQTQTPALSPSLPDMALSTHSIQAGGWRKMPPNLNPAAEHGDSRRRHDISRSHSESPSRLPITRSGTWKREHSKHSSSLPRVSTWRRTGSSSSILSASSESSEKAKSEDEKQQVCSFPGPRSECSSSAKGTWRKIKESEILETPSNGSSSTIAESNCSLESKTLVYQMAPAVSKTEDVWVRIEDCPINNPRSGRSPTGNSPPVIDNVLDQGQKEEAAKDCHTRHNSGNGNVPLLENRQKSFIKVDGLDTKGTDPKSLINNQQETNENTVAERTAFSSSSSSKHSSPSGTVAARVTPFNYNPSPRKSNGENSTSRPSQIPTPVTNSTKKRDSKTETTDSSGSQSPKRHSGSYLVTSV

On to “GST–KD-BubR1 (recombinant Xenopus kinase-dead BubR1) (from UniProt B7ZQ97 1-1041) (natural protein)”, for which the percent less coimmunoprecipitated with APC than WT-BubR1 is 40%.
